Measurements from patent publication US20140056903A1 (Regeneron, published 2014).

T1: cynomolgus GFRα3 on HEK293/MfGFRα3/MfRet/SRE-Luc cells (cynomolgus, UniProt O60609 1-400 (human entry), limits assumed)
T1 chain: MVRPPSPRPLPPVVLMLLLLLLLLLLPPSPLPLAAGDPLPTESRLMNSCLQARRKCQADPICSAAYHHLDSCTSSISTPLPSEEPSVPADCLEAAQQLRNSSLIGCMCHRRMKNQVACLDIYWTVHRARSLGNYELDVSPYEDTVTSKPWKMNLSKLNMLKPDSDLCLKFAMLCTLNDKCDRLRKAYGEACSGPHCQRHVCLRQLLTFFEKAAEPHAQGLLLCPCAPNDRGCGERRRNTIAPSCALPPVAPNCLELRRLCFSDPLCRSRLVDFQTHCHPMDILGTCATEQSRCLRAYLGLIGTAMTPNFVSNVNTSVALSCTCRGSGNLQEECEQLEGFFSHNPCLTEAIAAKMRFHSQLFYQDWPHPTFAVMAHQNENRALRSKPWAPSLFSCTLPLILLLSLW

T2: human GFRα1 expressed with a C-terminal human Fc tag and a hexahistidine tag (human, UniProt P56159 25-429, limits assumed)
T2 construct: bought protein; also called hGFRα1-hFc-6His; hGFRα1-hFc-6his
T2 sequence (looked up): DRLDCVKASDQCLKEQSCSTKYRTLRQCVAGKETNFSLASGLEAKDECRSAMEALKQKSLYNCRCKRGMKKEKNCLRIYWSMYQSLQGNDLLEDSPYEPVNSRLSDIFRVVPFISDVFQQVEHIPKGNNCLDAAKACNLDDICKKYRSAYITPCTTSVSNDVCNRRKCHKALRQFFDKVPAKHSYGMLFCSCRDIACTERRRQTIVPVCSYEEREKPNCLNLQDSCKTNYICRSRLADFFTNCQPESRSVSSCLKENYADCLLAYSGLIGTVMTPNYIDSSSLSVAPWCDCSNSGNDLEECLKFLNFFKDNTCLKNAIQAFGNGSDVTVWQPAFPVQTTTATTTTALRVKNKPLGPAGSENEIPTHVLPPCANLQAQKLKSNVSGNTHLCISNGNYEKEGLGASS


What was measured:
[1] = molecular target: T3, human GFRα3 expressed with a C-terminal myc-myc-hexahistidine tag (human, UniProt O60609 32-374, biotinylated (sites not given) in ELISA format 2 and in the Octet cross-competition; not in SPR); assay: blocking ELISA 2, biotin-hGFRα3-mmH to coated hARTEMIN-mmH + hRET-10His; IC50 cell 'enhancer'
T3 construct: also called hGFRα3-mmh; hGFRα3-mmH
Experimental: The equilibrated sample solutions were then transferred to the hARTEMIN-mmH-coated plate. […] Absorbance was recorded at 450 nm on a Victor X5 plate reader (Perkin Elmer) to determine the amount of free hGFRα3-hFc in the pre-equilibrated hGFRα3-hFc-antibody solutions that was able to bind to the plate coated with hARTEMIN-mmH. IC₅₀ values, defined as the concentration of antibody required to reduce the signal from a constant concentration of hGFRα3-hFc by 50%, were calculated from the data using Prism software from GraphPad. The absorbance measured at the constant amount of 120 pM hGFRα3-hFc in the absence of anti-GFRα3 antibody is defined as 0% blocking and the absorbance with no added hGFRα3-hFc is defined as 100% blocking. The observed absorbance in the wells containing the highest antibody concentration was used to calculate the maximum blocking percent shown in the table.
In the second ELISA format, the plates, samples and data were processed similarly as for the first format except both hARTEMIN-mmH and human RET with a C-terminal 10 histidine tag (hRET-10His; R&D Systems, #1168-CR/CF) were coated for the blocking ELISA experiment. The 96-well microtiter plates were coated with a mixture of 1.2 ug/ml hARTEMIN-mmH and 6.9 ug/ml hRET-10His proteins in PBS overnight at 4° C. and then blocked with a solution of 0.5% (w/v) BSA. A constant amount of biotinylated human GFRα3 with a C-terminal myc-myc-hexahistidine tag (biotin-hGFRα3-mmH; SEQ ID:370) at 1 nM was pre-mixed with varied amounts of anti-GFRα3 antibodies, ranging from 0 to ˜100 nM in serial dilutions, followed by a 1 hour incubation at RT to allow antibody-biotin-hGFRα3-mmH binding to reach equilibrium. The equilibrated samples were then transferred to the coated plate. After 1 hour of binding, the plate was washed, then the bound biotin-hGFRα3-mmH was detected using HRP conjugated streptavidin (Pierce, #N200), and colorimetric signals were developed using TMB HRP substrates.

[2] = molecular target: T1, cynomolgus GFRα3 on …; assay: cell-based or functional assay
[3] = molecular target: T2, human GFRα1 expressed with a C-terminal …; assay: BLI Octet, antigen captured on anti-hFc tips
Experimental: The ability of anti-GFRα3 antibodies to bind to GDNF-family receptors was assessed using an Octet Red biosensor (Fortebio, Inc.). Antibodies were tested for binding to either human GFRα1 expressed with a C-terminal human Fc tag and a hexahistidine tag (hGFRα1-hFc-6His, R&D Systems #714-GR), human GFRα1 expressed with only a C-terminal human Fc tag (hGFRα1-hFc; SEQ ID: 376), human GFRα2 expressed with a C-terminal human Fc tag and a hexahistidine tag (hGFRα2-hFc-6His, R&D Systems #613-FR), human GFRα3 expressed with a C-terminal human Fc tag (hGFRα3-hFc, SEQ ID:371), or an irrelevant human Fc tagged protein. Antigens were captured onto anti-human Fc sensor tips from 10 ug/mL solutions for 5 minutes. The coated sensor tips were then blocked with a 100 ug/mL solution of irrelevant human Fc antibodies for 5 minutes. Blocked sensor tips were then submerged into wells containing […] of each anti-GFRα3 antibody or buffer alone for 10 minutes. The experiment was performed at 25° C. with a flow rate of 1000 rpm using HBST+BSA buffer (10 mM HEPES, 150 mM NaCl, 3 mM EDTA, 0.05% w/v Surfactant P20, 0.1 mg/mL BSA, pH 7.4). The binding response (measured in units of nm) at each step of the experiment was monitored and recorded.

T3 sequence (O60609 other isoform, or with tags, fused parts or gaps limits assumed): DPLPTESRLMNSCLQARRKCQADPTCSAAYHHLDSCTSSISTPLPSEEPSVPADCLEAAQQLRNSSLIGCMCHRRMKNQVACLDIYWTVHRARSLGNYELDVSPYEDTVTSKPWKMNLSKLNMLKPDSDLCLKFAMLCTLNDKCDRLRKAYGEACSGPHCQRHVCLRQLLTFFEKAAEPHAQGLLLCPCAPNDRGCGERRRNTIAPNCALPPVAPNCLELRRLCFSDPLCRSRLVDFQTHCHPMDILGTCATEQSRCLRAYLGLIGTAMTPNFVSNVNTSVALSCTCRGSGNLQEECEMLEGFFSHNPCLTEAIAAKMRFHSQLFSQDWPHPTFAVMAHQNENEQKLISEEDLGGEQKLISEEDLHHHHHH

| Binder | % max blocking [1] [%] | IC50 (SRE-luc, HEK293/MfGFRα3/MfRET cells, 500 pM human ARTEMIN-MMH) [2] [nM] | binding result [3] |
| --- | --- | --- | --- |
| H4H2236N3 (antibody, human IgG4, V domains shown, human IgG4 Fc (H4H)) VH: EVQLLESGGNLVQPGGSLRLSCAASGFTFSSYAMTWVRQAPGKGLEWVSTISGSGTSTYYADSVKGRFTISRDNSRDTVFLQMNSLRAEDTAVYYCSKPSALRFLHWLAMDVWGQGTLVTVSS VL: DIQMTQSPSSLSAFVGDRVTITCRASQDIRNYLDWFQQKPGKAPKSLIYAASNLQSGVPSRFGGSGSGTDFTLTINSLQPEDFVTYYCQQYNSYPPTFGGGTKVEIK | 68 |  |  |
| H4H2243N2 (antibody, human IgG4, V domains shown, human IgG4 Fc (H4H)) VH: QVQLVQSGAEVKKPGASVKVSCKASGYTFTSYGIIWVRQAPGQGLEWMGWISGYNGNTNYAQNLQGRVTMTTDTSTTTAYMELRSLRSDDTAVYYCARWGIATRPYYYYGMDVWGQGTTVTVSS VL: DIQMTQSPSSLSASVGDRVTITCRASQDITNYLAWFQQKPGKAPKSLIYAASSLQSGVPSKFSGSGSGTDFTLTISSLQPEDFATYYCQQYNSYPPTFGPGTKVDIK |  | 0.8 | no binding (tested: 100 ug/mL) |
| H4H2291S (antibody, human IgG4, V domains shown, human IgG4 Fc (H4H)) VH: EVQLVESGGGLVQPGESLRLSCAASGFTFSNYAMSWVRQAPGKGLEWVSVISGSGGSTYYADSVKGRFTMSRDNSKNTLYLQMNSLRAEDTAVYYCAKPPSRAARYFNYGMDVWGQGTTVTVSS VL: AIRMTQSPSSVSASVGDRVTITCRASQGISSWLAWYQQKPGKAPKLLIYAASSLQSGVPSRFSGSGSGTDFTLTISSLQPEDFATYYCQQANSFPFTFGGGTKVEIK | 28 |  |  |
| H4H2296S (antibody, human IgG4, V domains shown, human IgG4 Fc (H4H)) VH: not shown VL: DIVMTQSPSSVSASVGDRVTITCRASQGISSWLAWYQQKPGKAPKLLIYAASSLRSGVPSRFSGSGSGTDFTLTITSLQPEDFATYYCQHTNSFPFTFGPGTKVEIK | 91 |  |  |
| H4H2295S (antibody, human IgG4, V domains shown, human IgG4 Fc (H4H)) VH: EVQLVESGGGLVQAGGSLRLSCVASGFTFSSYAMSWVRQAPGKGLEWVSAISGSGGSTYSADSVKGRFTISRDNSKNTLYLQMNSLRAEDTAVYYCTKPSSYSSSNFYYGMDVWGQGTTVTVSS VL: DIQMTQSPSSVSASVGDRVTITCRASQGISSWLAWYQQKPGKAPKLLIYTASSLQSGVPSRFSGSGSRTDFTLTISSLQPEDFATYYCQQTNSLPLTFGPGTKVEIK | 44 |  |  |
| H4H2294S (antibody, human IgG4, V domains shown, human IgG4 Fc (H4H)) VH: EVQLVESGGGLVQPGGSLRLSCAASGFTFSSYAMSWVRQAPGKGLEWVSVISGSGGSTYYADAVKGRFTISRDNSKHTLYLQMNSLRAEDTAVYYCTKPSSYSSSNFYYGMDVWGQGSTVTVSS VL: DIQLTQSPSSVSASVGDRVTITCRASQGISSWLAWYQQKPGKAPKLLIYAASSLQSGVPSRFSGSGSGTDFTLTISSLQPEDFATYYCQQTNSFPFPFGPGTKVDIK |  | 0.7 | no binding (tested: 100 ug/mL) |
| H4H2292S (antibody, human IgG4, V domains shown, human IgG4 Fc (H4H)) VH: EVQLVESGGGVVQPGRSLRLSCAASGFTFSSYGMHWVRQAPGKGLEWVSFIWYDGSNKYYADSVKGRFTISRDNSKNTLYLQMNSLTAEDTAVYYCARRGILTGTTAFDIWGQGTMVTVSS VL: DIQMTQSPSSLSASVGDRVTITCRASQSISSYLNWYQQKPGKAPKLLIYAASSLQSGVPSRFSGSGSGTDFTLTIRSLIPEDFATYYCQQTYNTPFTFGPGTKVEIK |  | 1.5 | no binding (tested: 100 ug/mL) |
| H4H2212N (antibody, human IgG4, V domains shown, human IgG4 Fc (H4H)) VH: EVQLLESGGGLVQPGGSLRLSCAASGFTFSSYAMSWVRQGPGKGLEWVSGISGSGGSTYNADSVKGRFTISRDNSKNTLYLQMNSLRAEDTAVYYCAKDSGTYWYYFDYWGQGILVTVSS VL: not shown |  | 1.8 |  |
| H4H2352S (antibody, human IgG4, V domains shown, human IgG4 Fc (H4H); also called H4H2352S-1) VH: EVQLVQSGAEVKKPGASVKVSCKASGYTFTNYGITWVRQAPGQGLEWMGWISAYNGNTGYAQKFQGRVTMTTDTSTSTAYMELRSLRSDDTAVYYCAREDYDFWRAFDIWGQGTMVTVSS VL: EIVLTQSPGTLSLSPGERATLSCRASQSVSSTYLAWLQQKPGQAPRLLIYGASSRATGIPDRFSGSGSGTDFTLTINRLEPEDFAVYYCQQYAYSPYTFGQGTKLEIK |  | 1.3 | no binding (tested: 100 ug/mL) |
| H4H2355S (antibody, human IgG4, V domains shown, human IgG4 Fc (H4H)) VH: EVQLVESGGGLVQPGGSLRLSCAASGFTFSSYAMSWVRQVPGKGLEWVSAISGSGDNTYNAESVKGRFTISRDNSKNMLYLQMNSLRAEDTAVYYCAKTKFSSSLLFDYWGQGTLVTVSS VL: not shown | 95 |  |  |
| H4H2342P (antibody, human IgG4, V domains shown, human IgG4 Fc (H4H)) VH: EVQLLESGGGLVQPGGSLRLSCAASGFTFSTYAMSWVRQAPGKGLEWVSAIRGNGVNTYYGDSMKGRFTISRDNSKDTLYLQMNSLRAEDTAVYYCAKNKWELLVFEYWGQGTLVTVSS VL: DIQMTQSPSSLSASVGDRVTITCRASQDISNYLAWYQQKPGKVPKLLIYAASTLQSGVPFRFSGSGSGTDFTLTISSLQPEDVATYYCQKYNSAPPFGPGTKVDIK |  | 2.5 | no binding (tested: 100 ug/mL) |
